# B1: EMID1 (parent)
# chain: FTETNNHWPQGPTGPPGPPGPMGP
# B2: KCNA4 (parent)
# chain: YQSGGRLKRPVNVPFDIFTEEVKF
# B3: OAS1 (parent)
# chain: LQLGEGVEFDVLPAFDALGQLTGG
# Variants of: B1
# Assay: protein stability index of a GFP-peptide fusion (GPS, HEK-293T) (PSI 1-6); higher = more stable
# Details: c terminus: a fixed tail appended
# 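Note: lentivirally expressed fusions sorted by FACS into six bins by GFP to DsRed ratio, PSI derived from sequencing read proportions per bin multiplied by bin number.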
row,Variant,protein stability index
1,P19M,1.93
2,P19L,2.41
3,P19E,2.19
4,P19Y,1.36
5,P19I,2.72
6,P19S,2
7,P19V,1.89
8,P19F,1.79
9,P19D,2.68
10,P19N,1.8
11,P19G,2.79
12,P19K,1.94
13,P16C,2.5
14,P16N,2.23
15,P16L,2.14
16,P16F,2.02
17,P16R,2.52
18,P16G,2.4
19,P16I,2.33
20,P16D,2.56
21,P16S,2.1

row,Variant,protein stability index
1,P16V,3.19
2,P16T,2.58
3,P16A,2.65
4,P16M,2.47
5,P16E,2.54
6,P16Y,2.07
7,P16K,1.83
8,P18C,1.53
9,P18I,1.93
10,P18M,1.68
11,P18Y,2.33
12,P18G,1.82
13,P18D,2.68
14,P18E,2.11
15,P18V,2.37
16,P18N,1.47
17,P18Q,1.93
18,P18K,2.51
19,P18L,2.17
20,P18R,2.56
21,P18F,2

row,Variant,protein stability index
1,P18S,2.45
2,P18W,2.55
3,P15I,2.24
4,P15Q,2.21
5,P15M,2.02
6,P15D,2.15
7,P15V,1.93
8,P15R,1.69
9,P15S,2.88
10,P15C,2.68
11,P15N,2.25
12,P15K,2.27
13,P15G,2.44
14,P15W,1.75
15,P15L,2.34
16,P15E,2.66
17,P15Y,2.58
18,P15H,2.62
19,P15F,2.11

# Variants of: B2
# Assay: as above
# Details: c terminus: a fixed tail appended
row,Variant,protein stability index
1,Y1K,2.88
2,Y1P,2.29
3,Y1F,1.6
4,Y1M,2.69
5,Y1L,3.97
6,Y1A,2.82
7,Y1Q,3.33
8,T19N,2.33
9,T19V,1.96
10,T19D,2.38
11,T19K,2.66
12,T19I,1.72
13,T19Y,2.16
14,T19S,2.09
15,T19E,1.92
16,P10H,1.93
17,P10K,1.4
18,P10D,1.38
19,P10V,2.31
20,P10I,1.72
21,P10W,1.14
22,P10S,1.97
23,K8I,2.47
24,K8D,2.28
25,K8N,2.23

row,Variant,protein stability index
1,P14E,1.42
2,P14I,3
3,P14S,1.9
4,P14T,1.51
5,P14N,2.07
6,P14K,1.71
7,P14R,2.19
8,P14Q,3.33
9,F24H,2.16
10,F24W,1.92
11,F24M,1.63
12,F24P,2.25
13,F24T,2.18
14,F24V,2.49
15,F24Y,2.89
16,F24Q,2.92
17,F24K,2.49
18,F24D,2.11
19,F24A,1.78
20,R6K,1.94
21,R6A,2.19
22,R6Y,2.51
23,R6E,1.63
24,R6V,1.77
25,R6L,1.51

row,Variant,protein stability index
1,F18D,2.01
2,F18A,2.28
3,F18P,2.44
4,F18E,1.81
5,F18I,1.97
6,F18C,1.57
7,G4I,2.36
8,G4A,2.09
9,G4M,2.08
10,G4L,2.77
11,G4T,2.2
12,G4F,1.71
13,G4P,3.26
14,G4D,1.96
15,G5E,2.29
16,G5T,2.7
17,G5W,1.59
18,G5I,1.72
19,G5S,1.81
20,G5R,1.8
21,G5K,2.14
22,G5C,1.73
23,G5L,1.49
24,V11F,3.13
25,V11D,1.91

row,Variant,protein stability index
1,V11K,1.39
2,V11N,2.74
3,V11P,1.82
4,V11L,1.95
5,V11I,2.3
6,R9K,1.83
7,R9H,2.02
8,R9T,1.7
9,R9L,2.11
10,R9E,2.06
11,R9S,2.1
12,R9G,2.31
13,R9M,1.46
14,R9W,3.37
15,Q2F,2.19
16,Q2R,2.22
17,Q2I,1.93
18,Q2P,2
19,Q2C,2.63
20,Q2G,1.77
21,Q2Y,1.55
22,D16S,1.21
23,D16V,1.55
24,D16W,2.98
25,D16P,1.52

row,Variant,protein stability index
1,D16K,1.57
2,D16E,2.08
3,D16L,1.85
4,E20C,2.11
5,E20S,1.92
6,K23C,2.33
7,K23Q,2.06
8,K23P,1.44
9,K23V,2.42
10,K23N,2.3
11,K23A,1.35
12,N12S,2.96
13,N12V,1.54
14,N12M,2.13
15,N12I,1.44
16,N12L,2.43
17,N12C,1.8
18,N12D,2.38
19,N12P,1.55
20,N12F,2.5
21,N12H,1.91
22,V13C,2.18
23,V13Y,1.88
24,V13P,1.53
25,V13D,1.55

row,Variant,protein stability index
1,V13F,1.52
2,V13K,2
3,V13R,2.25
4,V13L,1.78
5,F15K,2.1
6,F15Y,1.56
7,F15M,3
8,F15P,2.01
9,F15I,2.45
10,F15C,2.41
11,F15N,1.88
12,I17V,1.28
13,I17Y,1.99
14,I17F,2.25
15,I17K,2.04
16,I17D,2.83
17,I17W,2.99
18,I17C,3.62
19,I17T,2.89
20,V22N,1.83
21,V22S,2
22,V22T,1.96
23,V22D,2.09
24,V22Y,2.25
25,V22G,2.34

row,Variant,protein stability index
1,V22Q,2.08
2,E21S,1.24
3,E21D,2.37
4,E21C,1.7
5,E21F,1.55
6,E21H,1.77
7,L7W,1.77
8,L7G,1.84
9,L7P,1.99
10,L7F,2.4
11,L7D,1.95
12,L7C,1.78
13,L7K,2.15
14,S3P,1.7
15,S3C,1.69
16,S3T,2.32
17,S3W,2.23
18,S3G,2.05
19,S3H,2.5

# Variants of: B3
# Assay: as above
# Details: c terminus: a fixed tail appended
row,Variant,protein stability index
1,G19H,1.98
2,G19S,1.54
3,G19V,1.45
4,G19Q,1.61
5,G19E,1.61
6,G19L,2.67
7,G19C,2.11
8,G19T,2.01
9,G19D,2.91
10,G19F,1.76
11,G19Y,1.84
12,G19N,2
13,G19A,1.77
14,G19K,2.3
15,G19P,1.79
16,L18V,2
17,L18N,2.17
18,L18Y,2.13
19,L18Q,2.36
20,L18I,1.26
21,L18G,3.58
22,L18W,3.14
23,L18M,1.66
24,L18R,2.79
25,L18T,2.48
26,L18S,2.38

row,Variant,protein stability index
1,L21K,3.12
2,L21P,2.9
3,L21E,2.5
4,L21V,2.22
5,L21T,1.89
6,L21N,2.32
7,L21D,3.43
8,L21S,2.06
9,L21F,2.53
10,L21Q,3.62
11,L21G,2.36
12,L21H,1.68
13,L21A,2.22
14,L21I,2.91
15,L21Y,1.51
16,L21C,3.05
17,T22K,2.04
18,T22F,2.69
19,T22S,1.73
20,T22V,1.86
21,T22Q,1.14
22,T22Y,1.08
23,T22C,2.22
24,T22H,2.06
25,T22M,1.07
26,T22E,2.75

row,Variant,protein stability index
1,T22P,1.9
2,T22G,2.05
3,T22A,3.87
4,T22D,1.97
5,T22N,1.49
6,G24W,1.45
7,G24N,1.5
8,G24Y,2.55
9,G24D,1.94
10,G24H,3.16
11,G24S,1.81
12,G24F,1.17
13,G24K,2.49
14,G24I,3.05
15,G24P,1.64
16,G24Q,1.98
17,G24T,1.48
18,G24E,2.31
19,G23H,1.58
20,G23F,1.51
21,G23P,2.03
22,G23Q,2.58
23,G23I,1.19
24,G23S,1.74
25,G23D,2.13
26,G23R,2.68

row,Variant,protein stability index
1,G23A,2.33
2,G23Y,1.34
3,G23L,1.4
4,G23V,2.33
5,G23K,2.13
6,G23E,2.26
7,G23C,1.52
8,G23T,1.67
9,G23M,1.13
10,Q20L,1.02
11,Q20I,2.06
12,Q20S,1.77
13,Q20K,1.9
14,Q20Y,2.09
15,Q20P,1.78
16,Q20R,1.51
17,Q20E,2.02
18,Q20T,1.76
19,Q20V,2.01
20,Q20H,2.94
21,Q20G,1.82
22,Q20C,1.29
23,Q20D,2.65
24,Q20F,1.79
25,Q20M,1.82
26,Q20N,2.28

# From the supplement of paper PMC10567573
